From the Immune Epitope Database (IEDB)

What was measured:
HLA-A*24:02 = assay: IEDB peptide-MHC binding, purified MHC/competitive/radioactivity; filed as Kd, often an IC50 or EC50 that approximates it; ≥ and ≤ were set here for values at or beyond the usual limits of such assays
HLA-A*29:02 = assay: as above
HLA-A*23:01 = assay: as above
HLA-A*26:01 = assay: as above
HLA-A*30:02 = assay: as above
HLA-B*58:01 = assay: IEDB peptide-MHC binding, purified MHC/direct/fluorescence; filed as Kd, often an IC50 or EC50 that approximates it; ≥ and ≤ were set here for values at or beyond the usual limits of such assays; settings: source organism: SARS-CoV1
HLA-A*01:01 [1] = assay: as above; settings: source organism: SARS-CoV1
HLA-B*15:01 = assay: as above; settings: source organism: SARS-CoV1
HLA-A*11:01 = assay: as above; settings: source organism: SARS-CoV1
HLA-A*30:01 = assay: IEDB peptide-MHC binding, purified MHC/competitive/radioactivity; filed as Kd, often an IC50 or EC50 that approximates it; ≥ and ≤ were set here for values at or beyond the usual limits of such assays; settings: source organism: Mammarenavirus guanaritoense
HLA-A*32:01 = assay: as above; settings: source organism: Mammarenavirus guanaritoense
HLA-A*01:01 [2] = assay: as above
HLA-B*53:01 = assay: as above
HLA-B*51:01 = assay: as above
HLA-B*35:01 = assay: as above; settings: source organism: Dengue virus 3 Martinique/1243/1999
[3] = source organism: SARS coronavirus Tor2
[4] = source organism: Mammarenavirus guanaritoense
[5] = source organism: Dengue virus 2 Jamaica/1409/1983
[6] = source organism: Dengue virus 3 Martinique/1243/1999
[7] = source organism: Dengue virus 1 Brazil/97-11/1997
[8] = source organism: Dengue virus 4 Dominica/814669/1981
[9] = source organism: Mammarenavirus machupoense
[10] = source organism: Dengue virus 3 Singapore/8120/1995

Which results are given for TQDLFLPFY?
Kd (HLA-A*24:02; [3]): ≥ 77600 nM; Kd (HLA-A*29:02; [3]): 426 nM; Kd (HLA-A*23:01; [3]): ≥ 67400 nM; Kd (HLA-A*26:01; [3]): 16800 nM; Kd (HLA-A*30:02; [3]): 5.13 nM; Kd (HLA-B*58:01): ≥ 31500 nM; Kd (HLA-A*01:01 [1]): 1810 nM; Kd (HLA-B*15:01): 1710 nM; Kd (HLA-A*11:01): 424 nM

For RVGLYGLLFY, which Kd (HLA-A*30:01) is on record?
Its Kd is 4050 nM.

And the Kd (HLA-A*32:01)?
Its Kd is 2340 nM.

What about the Kd (HLA-A*01:01 [2]; [4]) of the same sequence?
Its Kd is 17400 nM.

And the Kd (HLA-A*29:02; [4])?
Its Kd is 48.4 nM.

And the Kd (HLA-A*26:01; [4])?
Its Kd is at least 69700 nM.

And the Kd (HLA-A*30:02; [4])?
Its Kd is 36.6 nM.

Which Kd (HLA-A*24:02; [3]) does the source give for LYLYALIYFL here?
The Kd was 299 nM.

What about the Kd (HLA-A*01:01 [2]; [3]) of the same sequence?
The Kd was 4270 nM.

And the Kd (HLA-A*29:02; [3])?
The Kd was 3000 nM.

And the Kd (HLA-A*23:01; [3])?
The Kd was 22 nM.

What about the Kd (HLA-A*26:01; [3]) of the same sequence?
The Kd was 2460 nM.

And the Kd (HLA-A*30:02; [3])?
Its Kd is 6960 nM.

What does the source list for EVEDYGFGVF?
Kd (HLA-A*23:01; [5]): 1000 nM; Kd (HLA-A*26:01; [5]): 132 nM

With LPETMETLLL as the sequence, how does the Kd (HLA-B*53:01; [6]) read?
The Kd was 24.3 nM.

And the Kd (HLA-B*51:01; [6])?
Its Kd is 1170 nM.

What about the Kd (HLA-B*35:01) of the same sequence?
Its Kd is 1210 nM.

What does the source list for CKSKNPLLY?
Kd (HLA-A*24:02; [3]): ≥ 77600 nM; Kd (HLA-A*01:01 [2]; [3]): ≥ 87700 nM; Kd (HLA-A*29:02; [3]): 163 nM; Kd (HLA-A*23:01; [3]): ≥ 67600 nM; Kd (HLA-A*26:01; [3]): ≥ 81500 nM; Kd (HLA-A*30:02; [3]): 199 nM

With SYKVASEGF as the sequence, how does the Kd (HLA-A*24:02; [7]) read?
Its Kd is 209 nM.

And the Kd (HLA-A*23:01; [7])?
The Kd was 626 nM.

With IPHDLMELI as the sequence, how does the Kd (HLA-B*53:01; [8]) read?
The Kd was 6.5 nM.

And the Kd (HLA-B*51:01; [8])?
The Kd was 16.8 nM.

Which results are given for LSSSEPHCA?
Kd (HLA-A*24:02; [9]): ≥ 77500 nM; Kd (HLA-A*01:01 [2]; [9]): 4190 nM; Kd (HLA-A*29:02; [9]): ≥ 78900 nM; Kd (HLA-A*23:01; [9]): ≥ 60900 nM; Kd (HLA-A*26:01; [9]): ≥ 77900 nM; Kd (HLA-A*30:02; [9]): 2350 nM

How did the Kd (HLA-A*24:02; [10]) turn out when LWMADVPLQW was run?
Its Kd is 24.3 nM.

What about the Kd (HLA-A*23:01; [10]) of the same sequence?
The Kd was 39.7 nM.
